The results in this text go back to patent US20230212319A1, “NOVEL ANTIGEN BINDING DOMAINS AND SYNTHETIC ANTIGEN RECEPTORS INCORPORATING THE SAME” (University of Southern California, priority 2020, published 2023).

B1: 22104 (protein)
chain: MALPVTALLLPLALLLHAARPDIQMTQSPSSLSASVGDRVTITCKASDHINNWLAWYQQKPGQAPKLLIYGATTLETGVPSRFSGSGSGTDYTLTISSLQPEDFATYYCQQSWNTPWTFGQGTKLEIKRLEDLKNVFPPEVAVFEPSEAEISHTQKATLVCLATGFYPDHVELSWWVNGKEVHSGVCTDPQPLKEQPALNDSRYCLSSRLRVSATFWQNPRNHFRCQVQFYGLSENDEWTQDRAKPVTQIVSAEAWGRADCGFTSESYQQGVLSATILYEILLGKATLYAVLVSALVLMAMVKRKDSRGRAKRSGSGATNFSLLKQAGDVEENPGPTSATMDWIWRILFLVGAATGAHSGPQVQLQESGGGLAQAGGSLRLSCAASGRTFSMGWFRQAPGKEREFVAAITYSGGSPYYASSVRGRFTISRDNAKNTVYLQMNSLKPEDTAVYYCAANPTYGSDWNAENWGQGTQVTVSSGSGGGGSGGGGSGGGGSFEQVQLQQPGAELVKPGASVKMSCKASGYAFSSYWINWMKQKPGQGLEWIGQIYPGDGDTNYNGKFKGRATLTADTSSSTAYMQLSSLTSEDSAVYFCARSITTVVGCAMDYWGQGTSVTVSSTRIQNPDPAVYQLRDSKSSDKSVCLFTDFDSQTNVSQSKDSDVYITDKCVLDMRSMDFKSNSAVAWSNKSDFACANAFNNSIIPEDTFFPSPESSCDVKLVEKSFETDTNLNFQNLSVIGFRILLLKVAGFNLLMTLRLWSSRAKRSGSGVKQTLNFDLLKLAGDVESNPGPSRGHMTEYKPTVRLATRDDVPRAVRTLAAAFADYPATRHTVDPDRHIERVTELQELFLTRVGLDIGKVWVADDGAAVAVWTTPESVEAGAVFAEIGPRMAELSGSRLAAQQQMEGLLAPHRPKEPAWFLATVGVSPDHQGKGLGSAVVLPGVEAAERAGVPAFLETSAPRNLPFYERLGFTVTADVEVPEGPRTWCMTRKPGA
B2: 22229 (protein)
chain: MALPVTALLLPLALLLHAARPACEVQLLESGGGLIQPGGSLRLSCAASGFTFSSHAMTWVRQAPGKGLEWVSAISGSGDYTHYADSVKGRFTISRDNSKNTVYLQMNSLRAEDSAVYYCAKDEDGGSLLGHRGQGTLVTVSSGTGAIGFLRTAEFDIQMTQSPSSLSASVGDRVTITCKASDHINNWLAWYQQKPGQAPKLLIYGATTLETGVPSRFSGSGSGTDYTLTISSLQPEDFATYYCQQSWNTPWTFGQGTKLEIKRLEDLKNVFPPEVAVFEPSKAEIAHTQKATLVCLATGFYPDHVELSWWVNGKEVHSGVCTDPQPLKEQPALNDSRYCLSSRLRVSATFWQNPRNHFRCQVQFYGLSENDEWTQDRAKPVTQIVSAEAWGRADCGITSASYHQGVLSATILYEILLGKATLYAVLVSALVLMAMVKRKDSRGRAKRSGSGATNFSLLKQAGDVEENPGPTSATMDWIWRILFLVGAATGAHSGPEVQLVESGGGLVQAGGSLRLSCAASGRTFSMGWFRQAPGKEREFVAAITYSGGSPYYADSVKGRFTISRDNAKNTVYLQMNSLKPEDTAVYYCAANPTYGSDWNAENWGQGTQVTVSSGSGGGGSGGGGSGGGGSFEQVQLQQPGAELVKPGASVKMSCKASGYAFSSYWINWMKQKPGQGLEWIGQIYPGDGDTNYNGKFKGRATLTADTSSSTAYMQLSSLTSEDSAVYFCARSITTVVGCAMDYWGQGTSVTVSSTRIQNPDPAVYQLRDSKSSDKSVCLFTDFDSQTNVSQSKDSDVYITDKCVLDMRSMDFKSNSAVAWSNKSDFACANAFNNSIIPEDTFFPSPESSCDVKLVEKSFETDTNLNFQNLSVIGFRILLLKVAGFNLLMTLRLWSSRAKRSGSGVKQTLNFDLLKLAGDVESNPGPSRGHMTEYKPTVRLATRDDVPRAVRTLAAAFADYPATRHTVDPDRHIERVTELQELFLTRVGLDIGKVWVADDGAAVAVWTTPESVEAGAVFAEIGPRMAELSGSRLAAQQQMEGLLAPHRPKEPAWFLATVGVSPDHQGKGLGSAVVLPGVEAAERAGVPAFLETSAPRNLPFYERLGFTVTADVEVPEGPRTWCMTRKPGA
B3: 22108 (protein)
chain: MALPVTALLLPLALLLHAARPQVQLVESGGGLVQPGGSLRLSCAASGFTFTNHAMSWVRQAPGKGLELVSSISGNGRTTYYADSVKGRFTISRDISKNTLDLQMNSLRAEDTAVYYCAKDGGETLVDSRGQGTLVTVSSGTGGGGSGGGGSGGGGSEFDIQMTQSPSSLSASVGDRVTITCKASDHINNWLAWYQQKPGQAPKLLIYGATTLETGVPSRFSGSGSGTDYTLTISSLQPEDFATYYCQQSWNTPWTFGQGTKLEIKRLEDLKNVFPPEVAVFEPSEAEISHTQKATLVCLATGFYPDHVELSWWVNGKEVHSGVCTDPQPLKEQPALNDSRYCLSSRLRVSATFWQNPRNHFRCQVQFYGLSENDEWTQDRAKPVTQIVSAEAWGRADCGFTSESYQQGVLSATILYEILLGKATLYAVLVSALVLMAMVKRKDSRGRAKRSGSGATNFSLLKQAGDVEENPGPTSMDWIWRILFLVGAATGAHSFEQVQLQQPGAELVKPGASVKMSCKASGYAFSSYWINWMKQKPGQGLEWIGQIYPGDGDTNYNGKFKGRATLTADTSSSTAYMQLSSLTSEDSAVYFCARSITTVVGCAMDYWGQGTSVTVSSTRIQNPDPAVYQLRDSKSSDKSVCLFTDFDSQTNVSQSKDSDVYITDKCVLDMRSMDFKSNSAVAWSNKSDFACANAFNNSIIPEDTFFPSPESSCDVKLVEKSFETDTNLNFQNLSVIGFRILLLKVAGFNLLMTLRLWSSRAKRSGSGVKQTLNFDLLKLAGDVESNPGPSRGHMTEYKPTVRLATRDDVPRAVRTLAAAFADYPATRHTVDPDRHIERVTELQELFLTRVGLDIGKVWVADDGAAVAVWTTPESVEAGAVFAEIGPRMAELSGSRLAAQQQMEGLLAPHRPKEPAWFLATVGVSPDHQGKGLGSAVVLPGVEAAERAGVPAFLETSAPRNLPFYERLGFTVTADVEVPEGPRTWCMTRKPGA
B4: 22107 (protein)
chain: MALPVTALLLPLALLLHAARPDIQMTQSPSSLSASVGDRVTITCKASDHINNWLAWYQQKPGQAPKLLIYGATTLETGVPSRFSGSGSGTDYTLTISSLQPEDFATYYCQQSWNTPWTFGQGTKLEIKRLEIQNPDPAVYQLRDSKSSDKSVCLFTDFDSQTNVSQSKDSDVYITDKCVLDMRSMDFKSNSAVAWSNKSDFACANAFNNSIIPEDTFFPSSDVPCDVKLVEKSFETDTNLNFQNLSVIGFRILLLKVAGFNLLMTLRLWSSRAKRSGSGVKQTLNFDLLKLAGDVESNPGPTSATMDWIWRILFLVGAATGAHSGPQVQLQESGGGLAQAGGSLRLSCAASGRTFSMGWFRQAPGKEREFVAAITYSGGSPYYASSVRGRFTISRDNAKNTVYLQMNSLKPEDTAVYYCAANPTYGSDWNAENWGQGTQVTVSSGSGGGGSGGGGSGGGGSFEQVQLQQPGAELVKPGASVKMSCKASGYAFSSYWINWMKQKPGQGLEWIGQIYPGDGDTNYNGKFKGRATLTADTSSSTAYMQLSSLTSEDSAVYFCARSITTVVGCAMDYWGQGTSVTVSSTREDLKNVFPPEVAVFEPSKAEIAHTQKATLVCLATGFYPDHVELSWWVNGKEVHSGVCTDPQPLKEQPALNDSRYCLSSRLRVSATFWQNPRNHFRCQVQFYGLSENDEWTQDRAKPVTQIVSAEAWGRADCGITSASYHQGVLSATILYEILLGKATLYAVLVSALVLMAMVKRKDSRGRAKRSGSGATNFSLLKQAGDVEENPGPSRGHMTEYKPTVRLATRDDVPRAVRTLAAAFADYPATRHTVDPDRHIERVTELQELFLTRVGLDIGKVWVADDGAAVAVWTTPESVEAGAVFAEIGPRMAELSGSRLAAQQQMEGLLAPHRPKEPAWFLATVGVSPDHQGKGLGSAVVLPGVEAAERAGVPAFLETSAPRNLPFYERLGFTVTADVEVPEGPRTWCMTRKPGA

The first assay has as its system RAJI cells. Description: JNG assay, co-culture with RAJI cells. To be noted: JNG cells expressing construct, co-culture with Raji. Type of assay: cell-based. In outline: (§1)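 Jurkat NFAT-GFP (JNG) cells stably transduced with SARs by lentivirus, with drug selection where the construct carried a resistance gene, then co-cultured with target cells at E:T ~1:2 for ~4–18 h. % GFP-positive cells measured by FACS against parental JNG; +/- to 5+ correspond to ~5–50% GFP-positive.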
Turning to B1, the “NFAT-GFP ASSAY: Raji” value was 5+ (refer to approximately 5%, 10%, 20%, 30%, 40% and 50% GFP positive cells).

B2: the “NFAT-GFP ASSAY: Raji” value was 3+ (refer to approximately 5%, 10%, 20%, 30%, 40% and 50% GFP positive cells).

In the case of B3, the “NFAT-GFP ASSAY: Raji” value is 4+ (refer to approximately 5%, 10%, 20%, 30%, 40% and 50% GFP positive cells).

On to B4, for which the “NFAT-GFP ASSAY: Raji” value is 4+ (refer to approximately 5%, 10%, 20%, 30%, 40% and 50% GFP positive cells).

Another assay relates to RAJI-CD19-KO cells. Description: JNG assay, co-culture with RAJI-CD19-KO cells. Type of assay: cell-based. To be noted: co-culture with Raji-CD19-KO. In outline: as §1
B1: the “NFAT-GFP ASSAY: Raji-CD19-KO” value is 5+ (refer to approximately 5%, 10%, 20%, 30%, 40% and 50% GFP positive cells).

Consider B2, for which the “NFAT-GFP ASSAY: Raji-CD19-KO” value was 5+ (refer to approximately 5%, 10%, 20%, 30%, 40% and 50% GFP positive cells).

Regarding B3, the “NFAT-GFP ASSAY: Raji-CD19-KO” value was 3+ (refer to approximately 5%, 10%, 20%, 30%, 40% and 50% GFP positive cells).

In the case of B4, the “NFAT-GFP ASSAY: Raji-CD19-KO” value was 5+ (refer to approximately 5%, 10%, 20%, 30%, 40% and 50% GFP positive cells).

A further assay relates to RS;411. Nature of the assay: JNG assay, co-culture with RS;411 cells. The settings on record: co-culture with RS411. The class given is cell-based. The method in brief: as §1
Turning to B1, the “NFAT-GFP ASSAY: RS411” value was 5+ (refer to approximately 5%, 10%, 20%, 30%, 40% and 50% GFP positive cells).

Regarding B2, the “NFAT-GFP ASSAY: RS411” value is 2+ (refer to approximately 5%, 10%, 20%, 30%, 40% and 50% GFP positive cells).

For B3, the “NFAT-GFP ASSAY: RS411” value was 5+ (refer to approximately 5%, 10%, 20%, 30%, 40% and 50% GFP positive cells).

B4: the “NFAT-GFP ASSAY: RS411” value is “+ (refer to approximately 5%, 10%, 20%, 30%, 40% and 50% GFP positive cells)”.
